Data on 1 molecule can be found in patent US20250277031A1 (BEIJING HANMI PHARMACEUTICAL, published 2025).

Experiment [1] addresses T1, rat CD47 on rat red blood cells (rat, UniProt P97829 19-303).
T1 construct: whole, on cells; also called Rat RBCs
T1 sequence (looked up): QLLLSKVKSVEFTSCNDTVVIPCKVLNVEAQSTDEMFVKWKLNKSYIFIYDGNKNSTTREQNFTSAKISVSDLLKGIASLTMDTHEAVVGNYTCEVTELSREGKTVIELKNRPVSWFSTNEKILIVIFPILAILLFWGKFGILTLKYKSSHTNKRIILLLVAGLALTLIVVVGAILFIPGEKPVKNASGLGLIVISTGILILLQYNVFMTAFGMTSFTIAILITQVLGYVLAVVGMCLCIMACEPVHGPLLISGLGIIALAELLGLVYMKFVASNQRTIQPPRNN
Put plainly: flow cytometry on rat RBCs. The method, then: (§1) The species specificity of the chimeric anti-human CD47 monoclonal antibodies was determined by flow cytometer FACS. Normal human RBCs internally donated, cynomolgus RBCs, rat RBCs and mouse RBCs were collected, washed once with cold PBS (GIBCO, Catalog number 14190) containing 2% FBS (Hyclone, Catalog number SH30084.03). The RBCs (2×10⁶ cells per tube) were resuspended in 100 μL of cold PBS containing 2% FBS, and the serially diluted anti-human CD47 antibody samples and the control CC-90002 and the isotype control were added therein. Flow tubes were incubated on ice for 30 minutes. The cells were washed twice with PBS containing 2% FBS. Then the pellets were resuspended in 200 μL of cold PBS containing 2% FBS and FITC-labeled anti-human IgG antibody diluted 1:1000 (Beijing Zhongshan Golden Bridge, Catalog number ZF0306), incubated on ice for 30 minutes in the dark. The cells were washed twice with PBS containing 2% FBS, then resuspended in 500 μL of cold PBS. The cell suspension obtained was detected and analyzed on a flow cytometer (BD, FACS Calibur), and the fluorescence intensities of the RBCs were read.

Experiment [2] has as its target T2, mouse CD47 on mouse red blood cells (mouse, UniProt Q61735 19-303).
T2 construct: whole, on cells; also called Mouse RBCs
T2 sequence (looked up): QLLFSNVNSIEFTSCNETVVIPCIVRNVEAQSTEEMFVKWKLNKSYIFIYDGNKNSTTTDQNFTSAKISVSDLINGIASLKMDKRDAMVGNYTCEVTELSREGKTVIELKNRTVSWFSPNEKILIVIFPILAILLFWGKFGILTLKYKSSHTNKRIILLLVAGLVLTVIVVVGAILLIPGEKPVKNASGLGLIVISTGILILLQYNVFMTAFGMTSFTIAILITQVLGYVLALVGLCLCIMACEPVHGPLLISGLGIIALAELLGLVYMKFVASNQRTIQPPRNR
Put plainly: flow cytometry on mouse RBCs. As to the method: as §1

Experiment [3] concerns the target T3, recombinant human CD47 (human, UniProt Q08722 19-139).
T3 construct: also called antigen CD47
Put plainly: ELISA, plate coated with 1 µg/mL recombinant human CD47, OD450. The method, then: A 96-well high-adsorption ELISA plate was coated with 1 μg/mL of the recombinant human CD47 (Sino Biological Inc.) at 100 μL per well using carbonate buffer solution, pH=9.6 at 4° C. overnight. The plate was washed 5 times with PBST, and then blocked using PBST with 1% BSA, 300 μL/well, and incubated at 25° C. for 1 hour, and then washed 5 times with PBST. The anti-human CD47 antibody samples and the control CC-90002 (a patent sequence from WO2016109415) were added, 100 μL/well, incubated at 25° C. for 1 hour, and then washed 5 times with PBST. The horseradish peroxidase-labeled anti-mouse IgG antibody (Abcam, catalog number Ab7068) diluted 1:10000 in PBST with 1% BSA was then added, 100 μL per well, and incubated at 25° C. for 1 hour. The plate was washed 5 times with PBST. The colorimetric substrate TMB was added, 100 μL/well, and developed at room temperature for 10 minutes. 1M H₂SO₄ was added, 100 μL/well, to stop the development. The absorbance at 450 nm was read on a microplate reader.

Experiment [4] deals with T3, recombinant human CD47. The experiment in a line: ELISA, plate coated with 1 µg/mL recombinant human CD47, anti-human IgG-HRP, OD450. The method, then: Species specificity of the chimeric anti-human CD47 mAbs was determined by ELISA. A 96-well high-adsorption ELISA plate was coated with 1 μg/mL of the recombinant human CD47, cynomolgus CD47, rat CD47 and mouse CD47, at 100 μL per well using carbonate buffer solution, pH=9.6 at 4° C. overnight. The plate was washed 5 times with PBST, and then blocked using PBST with 1% BSA, 300 μL/well, and incubated at 25° C. for 1 hour, and then washed 5 times with PBST. The chimeric anti-human CD47 antibody samples serially diluted in PBST with 1% BSA were added, 100 μL/well, incubated at 25° C. for 1 hour, and then washed 5 times with PBST. The horseradish peroxidase-labeled anti-human IgG antibody (Chemicon, catalog number AP309P) diluted 1:10000 in PBST with 1% BSA was then added, 100 μL per well, and incubated at 25° C. for 1 hour. The plate was washed 5 times with PBST. The colorimetric substrate TMB was added, 100 μL/well, and developed at room temperature for 10 minutes. 1M H₂SO₄ was added, 100 μL/well, to stop the development. The absorbance at 450 nm was read on a microplate reader.

The target in another experiment is T4, B7-H1 (human, UniProt Q9NZQ7).
T4 construct: recombinant protein; also called PD-L1
T4 sequence (Q9NZQ7 19-238 limits assumed): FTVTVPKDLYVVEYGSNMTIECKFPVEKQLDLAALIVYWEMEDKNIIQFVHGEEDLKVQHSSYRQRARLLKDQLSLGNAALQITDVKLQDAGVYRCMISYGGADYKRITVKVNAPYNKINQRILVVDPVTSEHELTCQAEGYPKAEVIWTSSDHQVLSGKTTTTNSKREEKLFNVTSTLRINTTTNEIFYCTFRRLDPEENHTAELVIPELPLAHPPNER
The experiment in a line: ELISA, plate coated with 1 µg/mL recombinant human protein, anti-human IgG-HRP, OD450; antibody concentration not given.

T3 sequence (Q08722 19-139 limits assumed): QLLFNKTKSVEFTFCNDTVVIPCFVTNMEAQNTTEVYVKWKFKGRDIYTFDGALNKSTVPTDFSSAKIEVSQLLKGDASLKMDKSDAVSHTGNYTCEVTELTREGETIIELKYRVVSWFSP

B1: chimeric anti-human CD47 monoclonal antibody mAb-18-5 (antibody, human IgG1, kappa)
heavy: not shown
light: DIVMTQSQKFMSTSVGDRVSITCKASQNVRTSIAWYQQKSGQSPKTLIYLASNRHTGVPDRFTGSGSGTDFTLTISNVQSEDLADYFCLQHWNYPFTFGSGTKLEIKRTVAAPSVFIFPPSDEQLKSGTASVVCLLNNFYPREAKVQWKVDNALQSGNSQESVTEQDSKDSTYSLSSTLTLSKADYEKHKVYACEVTHQGLSSPVTKSFNRGEC
For the molecule B1, the binding result (in experiment [1]; in experiment [2]; with B7-H1) was “no binding” throughout. For the same molecule, the figures for the EC50 in the experiment with recombinant human CD47 [3] and with recombinant human CD47 [4] were 0.026 nM and 0.086 nM, respectively.
